Measurements published in patent publication US9206239B2, “Treatment of cancers with immunostimulatory HIV Tat derivative polypeptides” (PIN Pharma, Inc., priority 2009, dated 2015).
“Also recorded” adds a separate entry of the source.

Key:
4T1 cells = assay: Repeated dosing of Nani-P2 alternating with cyclophosphamide in 4T1 tumor-bearing mice; assay type: in vivo, BALB/c mice
Experimental: Four groups of 10 BALB/c mice were implanted with 1×10^4 4T1 cells SC into the mammary fat pad. Treatment was initiated when tumor diameters reached 4-5 mm, on day 10. Control mice were injected IV with PBS at 3 days intervals, while alternating treatment mice received 3 doses of drug every 3 days in rotating 10 day cycles. Tumor burden (tumor size mm^3) was calculated using a standard formula. CY: (cyclophosphamide alone) mice were injected IP weekly with 80 mg/kg per mouse beginning on day 10. Cy/Nani-P2: (cyclophosphamide first followed by Nani-P2) mice were first injected IP with cyclophosphamide (80 mg/kg) at 3 days intervals for three doses starting at day 10 and then injected IV with Nani-P2 (40 ng) at 3 days intervals for three doses in rotation. The cycle of 3 doses of CY followed by 3 doses of Nani-P2 was repeated until day 50. Nani-P2/CY: (Nani-P2 first followed by cyclophosphamide): mice were first injected IV with Nani-P2 (40 ng) at 3 day intervals for 3 doses starting on day 10 and then injected i.p. with cyclophosphamide at 3 day intervals in rotation. The cycle of 3 doses of Nani-P2 followed by 3 doses of CY was repeated until day 50.

SM1 breast cancer cells = assay: SM1 breast carcinoma model; assay type: in vivo, mice
Experimental: 4T1 cells, a 6-thioguanine-resistant cell line derived from a BALB/c spontaneous mammary carcinoma was obtained from ATCC; TS/A, a murine adenocarcinoma cell line was provided by Dr. Sandra Demaria (Demaria S. et al. Clin Cancer Res. 11:728-34, 2005); and SM1, the BALB/C-derived mammary carcinoma was kindly was provided by Dr. James Allison, University of California, Berkeley. All tumor cell lines were cultured in DMEM, supplemented with 2 mM L-glutamine, 10 mM HEPES, 150 units/ml penicillin/streptomycin, 10% heat-inactivated FCS (Invitrogen), 50 μM 2-mercaptoethanol (Sigma), and 50 mg/L gentamicin (Lanza).
BALB/c were injected (SC) with 1×10^4 4T1, 1×10^5 TS/A or 2×10^5 SM1 cells, respectively, in the left mammary pad on day 0. Immunotherapy was performed by directly injecting a Tat derivative into the right flank at 0, 7, 12, and 17 days after establishment of tumors. The control group received PBS injection. […] Tumor burden (tumor volume) was measured and recorded three times weekly. Animals were sacrificed when tumors reached a volume of 15 mm in diameter and the tumors harvested and weighed.

4T1 breast tumor cells = assay: 4T1 breast tumor growth in BALB/c mice; assay type: in vivo
4T1 lung metastases = assay: Detection of 4T1 lung metastases; assay type: in vivo, BALB/c mice; details: treated IV, established 4T1 tumors; p<0.01 vs PBS
Text: Lungs were examined for 4T1 metastases as previously described (Pulaski B. et al. Cancer Res. 60:2710-2715, 2000). Primary 4T1 tumors that have been established for 2-3 weeks in BALB/c mice metastasize to the lungs in a very large majority of animals. Briefly, mice were sacrificed according to IACUC guidelines established at the start of the trials, the lungs removed, and tumor nodules on the surface of the lungs were enumerated with the naked eye by two independent investigators blinded to the treatment protocols.
To further investigate the efficacy of Nani-P2 against established and metastatic breast cancer, 4T1 cells were injected SC in the abdominal mammary gland of mice and treatment was delayed until such time that the tumors had metastasized to the lungs and averaged 3.5 mm in size (FIG. 8A, day 13), corresponding to a 2.4 cm or stage T2 human breast tumor. Mice were followed for tumor growth (FIG. 8A) and lung metastases (FIG. 8B). […] This corresponded to a less aggressive appearance of primary tumor, as well as lung metastases that were on average much smaller in size (FIG. 8B).

[1] = day 50, Nani-P2 alternating with cyclophosphamide

B1: Nani-P2: HIV Tat derivative polypeptide, SEQ ID NO: 3; derivatized Tat amino terminus from an African Green Monkey variant SIV (protein)
chain: MDPKGEEDQDVSHQDLIKQYRKPRTACNNCYCKKCCFHCYACFLRKGLGITYHAFRTRRKKIASADRIPVPQQSISIRGRDSQTTQESQKKVEEQAKANLRISRKNLGDETRGPVGAGN
modifications: Nani-P2 modified HIV Tat sequence
notes: derivatized Tat amino terminus from an African Green Monkey variant SIV
4T1 cells; Nani-P2 bolus treatment alternating with cyclophosphamide, p=0.0001
  survival benefit vs weekly cyclophosphamide: highly statistically significant
4T1 cells; [1]
  mice in partial remission: 9/10
  mice in total remission: 3/10
SM1 breast cancer cells; 40 ng SC days 0, 7, 14, 21, p<0.01
  difference in primary tumor growth between control and treated animals: highly statistically significant
SM1 breast cancer cells; 28 days following implant, one week after termination of the regimen
  animals remaining in remission: 40%
SM1 breast cancer cells; for 16 days, 40 ng SC days 0, 7, 14, 21
  animals in which tumor growth was suppressed: 100%
4T1 breast tumor cells; 4 ng or 40 ng per mouse, four times over 21 days
  difference in mean tumor volume vs control group: highly significant
4T1 breast tumor cells; 40 ng IV weekly for three weeks from day 14, trial 50 days, p<0.01
  primary tumor burden vs PBS control, established tumors: statistically significant benefit in primary tumor suppression; also recorded: highly significant
4T1 breast tumor cells; 40 ng IV weekly x3 from day 14, at 50 days
  animals with complete remission, disease-free: 1/10 and One of 10
4T1 breast tumor cells; 40 ng IV, initial treatment on day 14
  mice with regression of tumor at the initial treatment: 7/10
4T1 breast tumor cells; SC therapy begun on day 13, tumors about 5 mm in diameter
  decrease of tumor burden on average at maximal effect: 52%
4T1 breast tumor cells; highly-purified, SC, 0.4 ng to 40 ng per dose
  breast tumor growth inhibitory effect on 4T1 tumors: dose-dependent
4T1 lung metastases
  average number of grossly visible tumor nodules in the lungs: seven
